For this assay, the target named is Flag–Rab32 (human) (UniProt Q13637). The experiment in a line: co-IP.
Flag–Rab32 (human), sequence (Q13637 whole entry): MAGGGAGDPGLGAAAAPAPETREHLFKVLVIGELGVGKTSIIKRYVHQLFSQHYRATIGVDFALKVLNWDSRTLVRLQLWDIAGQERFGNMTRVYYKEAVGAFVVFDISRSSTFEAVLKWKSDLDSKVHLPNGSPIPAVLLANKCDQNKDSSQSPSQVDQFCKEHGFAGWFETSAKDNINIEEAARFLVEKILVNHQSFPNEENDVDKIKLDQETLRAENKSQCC

endogenous PKA holoenzyme, sequence (P13861 whole entry, one chain of several): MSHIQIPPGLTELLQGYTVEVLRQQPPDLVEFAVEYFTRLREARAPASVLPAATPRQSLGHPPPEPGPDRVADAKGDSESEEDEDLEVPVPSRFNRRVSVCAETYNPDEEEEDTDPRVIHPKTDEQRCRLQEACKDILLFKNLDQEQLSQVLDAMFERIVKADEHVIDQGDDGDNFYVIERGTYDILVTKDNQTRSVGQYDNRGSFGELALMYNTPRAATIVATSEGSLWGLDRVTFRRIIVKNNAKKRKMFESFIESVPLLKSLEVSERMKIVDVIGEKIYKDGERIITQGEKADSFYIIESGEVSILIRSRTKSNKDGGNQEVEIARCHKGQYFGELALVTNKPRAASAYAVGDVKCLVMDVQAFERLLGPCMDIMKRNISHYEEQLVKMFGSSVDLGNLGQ

Substance “endogenous PKA holoenzyme (from UniProt P13861 1-404; P17612 1-351) (complex)” displayed a fold enrichment of PKA activity in the immune complexes of 7.1 fold.

Values taken from PMC2174006.
